The target of one test is T1, CD55 (UniProt P08174 35-353, limits assumed).
T1 construct: In the internalization assay CD55 stood on MDA231 and SIHA cells
T1 sequence (looked up): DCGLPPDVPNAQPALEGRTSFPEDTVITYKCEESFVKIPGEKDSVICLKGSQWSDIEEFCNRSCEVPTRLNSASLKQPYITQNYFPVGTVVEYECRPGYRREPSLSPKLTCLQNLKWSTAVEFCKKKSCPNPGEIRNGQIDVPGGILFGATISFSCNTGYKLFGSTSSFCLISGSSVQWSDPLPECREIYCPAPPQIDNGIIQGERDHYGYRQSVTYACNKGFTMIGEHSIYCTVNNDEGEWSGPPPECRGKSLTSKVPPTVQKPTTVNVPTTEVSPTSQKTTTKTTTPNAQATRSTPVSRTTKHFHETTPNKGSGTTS
The experiment in a line: flow cytometry cell binding on MDA231 cells (Cy3 goat anti-human IgG); antibody concentration not given.

The target of test [1] is T2, CD20 (on CD20 positive Raji cells) (UniProt P11836 1-297, limits assumed).
T2 construct: whole, on cells; Raji is a human B cell line
T2 sequence (looked up): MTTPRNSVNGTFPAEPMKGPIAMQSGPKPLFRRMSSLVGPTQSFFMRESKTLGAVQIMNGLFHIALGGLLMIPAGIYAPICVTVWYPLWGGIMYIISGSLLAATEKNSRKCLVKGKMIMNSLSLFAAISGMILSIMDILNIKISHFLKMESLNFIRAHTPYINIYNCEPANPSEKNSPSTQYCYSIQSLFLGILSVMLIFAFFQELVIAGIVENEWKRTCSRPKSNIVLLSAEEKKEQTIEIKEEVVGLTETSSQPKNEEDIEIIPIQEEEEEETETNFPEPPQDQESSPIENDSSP
The experiment in a line: flow cytometry cell binding on CD20+ Raji cells, 3-fold titration 10 to 0.04 µg/ml and 0.

The target in a further test is PD-L1 (UniProt Q9NZQ7 19-290, limits assumed). The experiment in a line: flow cytometry cell binding on MDA231 cells (Cy3 goat anti-human IgG); antibody concentration not given. In general terms: A flow cytometer gives signals particle by particle.

Positions count from the first letter of the chain named. Names may count otherwise.

Chain of PD-L1 (Q9NZQ7 19-290 limits assumed): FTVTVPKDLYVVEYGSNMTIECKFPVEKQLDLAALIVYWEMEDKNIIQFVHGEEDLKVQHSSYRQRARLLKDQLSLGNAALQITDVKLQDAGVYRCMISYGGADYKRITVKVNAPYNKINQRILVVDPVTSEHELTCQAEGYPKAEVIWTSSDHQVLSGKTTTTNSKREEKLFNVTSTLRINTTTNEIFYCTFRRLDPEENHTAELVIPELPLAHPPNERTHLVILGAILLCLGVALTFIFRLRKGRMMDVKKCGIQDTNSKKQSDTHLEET

B1: parental anti-CD55 antibody (CD55 wt) (antibody, V domains shown)
VH: QVKLQESGGGLVQPGGSLKLSCAASGFTFSGYGMSWIRQTPDKRLEWVATINSGGSYTYYSDSVKGRFTISRDNVKNTLYLQMSSLKSEDTAMYYCARRNGTLYYYLMDYWGRGTLVTVSS
VL: QSVLTQPPSASGSPGQSVTISCTGTSSDVGGYNYVSWYQQHPGKAPKFMIYDVSKRPSGVSNRFSGSKSGNTASLTISGVQAEDEADYYCSSYTSASTVIFGGGTKLTVL
notes: The variable domains come from a published CD55 scFv; also called CD55 parental Ab; anti-CD55 parental monoclonal antibody
Consider B1, for which the binding result with CD55 is given as “binds”.

B2: parental anti-CD20 IgG (Rituximab) (antibody, V domains shown)
VH: QVQLQQPGAELVKPGASVKMSCKASGYTFTSYNMHWVKQTPGRGLEWIGAIYPGNGDTSYNQKFKGKATLTADKSSSTAYMQLSSLTSEDSAVYYCARSTYYGGDWYFNVWGAGTTVTVSA
VL: QIVLSQSPAILSASPGEKVTMTCRASSSVSYIHWFQQKPGSSPKPWIYATSNLASGVPVRFSGSGSGTSYSLTISRVEAEDAATYYCQQWTSNPPTFGGGTKLEIKR
notes: tested as IgG; also called Parental CD20; CD20 parental Ab
In general, EC50 (read off the curve) refers to the concentration at which the effect is half-maximal. High values mean a less potent agent, low ones a more potent agent. B2: in test [1], the “EC50 (read off the curve)” value was ~0.2 µg/mL.

B3: parental anti-CD3 IgG (MAb 12F6) (antibody, V domains shown)
VH: QVQLQQSGAELARPGASVKMSCKASGYTFTSYTMHWVKQRPGQGLEWIGYINPSSGYTKYNQKFKDKATLTADKSSSTAYMQLSSLTSEDSAVYYCARWQDYDVYFDYWGQGTTLTVSS
VL: B2 VL with I32M, F35Y, V59A, T91S, I105T
notes: tested as IgG; also called Parental CD3; CD3 parental Ab
With B3, the binding result in test [1] is “no binding (tested: 10 µg/ml)”.

B4: CD3 homodimer IgG containing the designed VH sequence (SEQ ID NO: 2) and the common VL sequence (SEQ ID NO: 3) (antibody, V domains shown)
VH: B3 VH with Q1E, Q6E, Q43E, Q82E, Q111E
VL: B2 VL
notes: Homodimer IgG with two VHb and two common VL; also called redesigned 12F6; antibody B
As to B4, the binding result in test [1] was “no binding (tested: 10 µg/ml)”.

B5: CD20 homodimer IgG containing the designed VH sequence (SEQ ID NO: 1) and the common VL sequence (SEQ ID NO: 3) (antibody, V domains shown)
VH: B2 VH with T87R
VL: B2 VL
notes: Homodimer IgG with two VHa and two common VL; VHa is the Rituximab VH with T83R (Kabat); also called redesigned Rituximab; antibody A
On to B5, for which, in test [1], the “EC50 (read off the curve)” value was ~0.4 µg/mL.

B6: Anti-PD-L1 homodimer IgG (PD-L1 v1) containing the designed VH sequence (SEQ ID NO: 4) and the common VL sequence (SEQ ID NO: 6) (antibody, V domains shown)
VH: EVQLLESGGGLVEPGGSLRLSCAASGFTFSSYIMMWVRQAPGKGLEWVSSIYPSGGITFYADTVKGRFTISRDNSKNTLYLQMNSLRAEDTAVYYCARIKLGTVTTVDYWGEGTLVTVSS
VL: QSALTQPASVSGSPGQSITISCTGTSSDVGGYNYVSWYQQHPGKAPKLMIYDVSKRPSGVSNRFSGSKSGNTASLTISGLQAEDEADYYCSSYTSASTRIFGGGTKVTVLR
notes: Homodimer IgG; The heavy chain constant region of the homodimer is not specified; also called PD-L1 mono-dimer IgG; PDL1 homodimer version 1
Regarding B6, the binding result with PD-L1 was “binds”.

B7: Anti-CD55 homodimer IgG (CD55 v1) containing the designed VH sequence (SEQ ID NO: 5) and the common VL sequence (SEQ ID NO: 6) (antibody, V domains shown)
VH: B1 VH with Q13K, D42G
VL: B6 VL
notes: Homodimer IgG; also called CD55 mono-dimer IgG; CD55 homodimer version 1
Turning to B7, the binding result in the test with CD55 was “binds”.

Values taken from patent publication US20210206882A1 (AB STUDIO, published 2021).
